According to PMC9734377 (Communications Biology, 2022):
“And” between values parts separate entries of the source, which are not always exact repeats. Equal values may be shown once.

Key:
[1] = molecular target: Leishmania donovani glucose 6-phosphate dehydrogenase wild type (Leishmania donovani); experiment: SEC; HiLoad 16/60 Superdex 200, buffer A (500 mM NaCl, 50 mM Tris, pH 7.8), native conditions; for LdG6PD wt also 12-300 uM enzyme, 5 mM DTT, 2 mM H2O2, substrates (100 uM G6P, NADP+), 0.1-1 M NaCl, pH 4.8-7.8, all without change of the profile; self-association: monomers to dimer and dimers to tetramer
[2] = molecular target: T1, LdG6PD wt dimer (LdG6PD^Dimer) (Leishmania donovani, UniProt A2CIL3); experiment: dead-end inhibition, Lineweaver-Burk; format: biochemical; conditions: 0-20 µM GlcN 6-P; competitive against G6P, not against NADP+; pH 7.5, 25 °C; oligomer fraction not told
T1 construct: gene g6pdh
T1 sequence (A2CIL3 1-562): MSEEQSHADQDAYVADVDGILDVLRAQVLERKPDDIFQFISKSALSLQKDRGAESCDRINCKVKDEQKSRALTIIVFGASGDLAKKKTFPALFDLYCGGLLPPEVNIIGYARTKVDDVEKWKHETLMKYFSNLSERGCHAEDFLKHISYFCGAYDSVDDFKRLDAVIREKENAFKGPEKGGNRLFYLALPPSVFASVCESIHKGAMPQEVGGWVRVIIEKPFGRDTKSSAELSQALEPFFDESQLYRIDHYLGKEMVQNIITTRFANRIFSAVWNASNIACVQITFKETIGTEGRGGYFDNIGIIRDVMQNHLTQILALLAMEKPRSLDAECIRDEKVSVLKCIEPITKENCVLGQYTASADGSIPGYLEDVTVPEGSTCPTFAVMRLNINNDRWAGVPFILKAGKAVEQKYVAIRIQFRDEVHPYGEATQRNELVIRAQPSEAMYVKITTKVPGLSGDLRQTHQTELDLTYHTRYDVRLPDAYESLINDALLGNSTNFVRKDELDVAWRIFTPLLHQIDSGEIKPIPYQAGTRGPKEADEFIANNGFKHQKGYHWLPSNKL

[3] = molecular target: Leishmania major glucose 6-phosphate dehydrogenase wild type (Leishmania major); experiment: SEC; HiLoad 16/60 Superdex 200, buffer A (500 mM NaCl, 50 mM Tris, pH 7.8), native conditions; for LdG6PD wt also 12-300 uM enzyme, 5 mM DTT, 2 mM H2O2, substrates (100 uM G6P, NADP+), 0.1-1 M NaCl, pH 4.8-7.8, all without change of the profile; self-association: monomers to dimer and dimers to tetramer
[4] = molecular target: Leishmania donovani glucose 6-phosphate dehydrogenase C138S mutant (Leishmania donovani); experiment: SEC
[5] = molecular target: T1, LdG6PD wt dimer (LdG6PD^Dimer); experiment: product inhibition, Lineweaver-Burk; format: biochemical; conditions: 0-80 µM NADPH; competitive against NADP+ (G6P 800 µM) and against G6P (NADP+ 200 µM); pH 7.5, 25 °C; oligomer fraction not told
[6] = tested on: NC(=O)c1ccc[n+]([C@@H]2O[C@H](COP(=O)(O)OP(=O)(O)OC[C@H]3O[C@@H](n4cnc5c(N)ncnc54)[C@H](OP(=O)(O)O)[C@@H]3O)[C@@H](O)[C@H]2O)c1; experiment: purified protein; format: biochemical, Leishmania donovani; conditions: 800 µM G6P, 50 mM Tris pH 7.5, 3.3 mM MgCl2, 25 °C, crystal ligand given as NADP(H), redox state open
[7] = molecular target: Leishmania donovani glucose 6-phosphate dehydrogenase truncation mutant lacking the first 59 N-terminal amino acids (Leishmania donovani); experiment: SEC
purified protein [8] = substrate: NC(=O)c1ccc[n+]([C@@H]2O[C@H](COP(=O)(O)OP(=O)(O)OC[C@H]3O[C@@H](n4cnc5c(N)ncnc54)[C@H](OP(=O)(O)O)[C@@H]3O)[C@@H](O)[C@H]2O)c1; experiment: purified protein; conditions: 800 µM G6P
purified protein [9] = substrate: NC(=O)c1ccc[n+]([C@@H]2O[C@H](COP(=O)(O)OP(=O)(O)OC[C@H]3O[C@@H](n4cnc5c(N)ncnc54)[C@H](OP(=O)(O)O)[C@@H]3O)[C@@H](O)[C@H]2O)c1; experiment: purified protein; format: biochemical, Leishmania donovani; conditions: 800 µM G6P, 50 mM Tris pH 7.5, 3.3 mM MgCl2, 25 °C, tetramer fraction

With “Leishmania donovani glucose 6-phosphate dehydrogenase wild type (enzyme)” the stoichiometry N [1] was 4 and 2.

In the case of `N[C@H]1C(O)O[C@H](COP(=O)(O)O)[C@@H](O)[C@@H]1O` (stereo partly shown) [GlcN 6-P, glucosamine 6-phosphate], the “dead-end inhibition, Lineweaver-Burk” value [2] is reported as “GlcN 6-P shows a competitive inhibition pattern towards G6P”.

With “Leishmania major glucose 6-phosphate dehydrogenase wild type (enzyme)” the stoichiometry N [3] was 2 and 4.

“Leishmania donovani glucose 6-phosphate dehydrogenase C138S mutant (enzyme)” was tested, and the stoichiometry N [4] was 2 and 4.

`NC(=O)C1=CN([C@@H]2O[C@H](COP(=O)(O)OP(=O)(O)OC[C@H]3O[C@@H](n4cnc5c(N)ncnc54)[C@H](OP(=O)(O)O)[C@@H]3O)[C@@H](O)[C@H]2O)C=CC1` [NADPH] was tested, and the “product inhibition, Lineweaver-Burk” value [5] was “NADPH was found to be a competitive inhibitor with respect to NADP^+ in LdG6PD”.

Molecule LdG6PD^60–562 (Leishmania donovani) has a Km [6] of 14.3 ± 2.2 µM, a Vmax [6] of 233 µmol/min/mg and a kcat [6] of 234 ± 18.8 s⁻¹. For the same molecule, the kcat/Km [6] was 1.7e+07 ± 2.5e+06 M⁻¹ s⁻¹.

With “Leishmania donovani glucose 6-phosphate dehydrogenase truncation mutant lacking the first 59 N-terminal amino acids (domain or fragment)” the stoichiometry N [7] was 2.

B1: LmG6PD wt (Leishmania major) (protein)
chain: MSEEQSHADQDAYVADVDGILDVLRAEVLERKPDDVFQFISQSALSLQKDRGAESCDRINCKVTDEQKSRALTIIVFGASGDLAKKKTFPALFDLYCGGLLPPEVNVIGYARTKVDDAERWKRETLMTYFSNVPERACHAEDFLKHISYFCGSYDKVDDFKRLDAVIREKENAFKGPEKGGNRLFYLALPPSVFASVCESIHKGAMPQEVGGWARVIIEKPFGRDTKSSAELSRALEPFFDESQLYRIDHYLGKEMVQNIITTRFANRIFSAVWNSNNIACVQITFKETIGTEGRGGYFDGIGIIRDVMQNHLTQILALLAMEKPRSLDAECIRDEKVSVLKCIEPITKENCVLGQYTASADGSIPGYQEDVTVPEGSTCPTFAVMRLNINNDRWAGVPFILKAGKAVEQKYVAIRIQFKDEVHPYGEATQRNELVIRAQPSEAMYVKITTKVPGLSGDLRQTHQTELDLTYHTRYDVRLPDAYESLINDALLGNSTNFVRKDELDVAWRIFTPLLHQIDCGEIKPIPYQAGTRGPKEADEFITNNGFKHQKGYQWLPSNKL
With B1 the Km (purified protein [8]; 50 mM Tris pH 7.5, 3.3 mM MgCl2, 25 °C) was 11.4 ± 1.5 µM.

B2: LdG6PD wt dimer (LdG6PD^Dimer) (Leishmania donovani) (protein)
chain: T1 sequence (A2CIL3 1-562)
In the case of B2, the Km (purified protein [8]; 50 mM Tris pH 7.5, 3.3 mM MgCl2, 0.005% Tween, 1 mg/mL BSA, 25 °C, dimer fraction, crystal ligand given as NADP(H), redox state open) is reported as 15.9 ± 1.1 µM.

B3: LdG6PD wt tetramer (LdG6PD^Tetramer) (Leishmania donovani) (protein)
chain: T1 sequence (A2CIL3 1-562)
For B3, the Km (purified protein [9]) was 14.2 ± 0.9 µM, the Vmax (purified protein [9]) was 185 µmol/min/mg and the kcat (purified protein [9]) was 204 ± 13.6 s⁻¹. It also gave a kcat/Km (purified protein [9]) of 1.49e+07 ± 3e+06 M⁻¹ s⁻¹.
